In article PMC4339892, “Neuropilin 1 is an entry factor that promotes EBV infection of nasopharyngeal epithelial cells” (Nature Communications, 2015):

How the values were obtained:
[1] = target: T1, GST-NRP1^ABC (soluble extracellular ABC domain of NRP1) (human, UniProt O14786-1 30-862); experiment: ELISA; plates coated with 200 ng purified FLAG-gB^23–431, various concentrations of GST-NRP1 or GST-NRP2 for 2 h at RT, rabbit anti-GST and HRP-conjugated secondary antibody; apparent affinity constant; conditions: both partners purified
T1 construct: neuropilin 1 residues 30-862 (extracellular ABC domain), amplified from pMSCV-NRP1, in pGEX-6p-1; also called pGEX-NRP1^ABC; pGEX-GST-NRP1^ABC; source: E. coli Rosetta, purified (Glutathione agarose)
T1 sequence: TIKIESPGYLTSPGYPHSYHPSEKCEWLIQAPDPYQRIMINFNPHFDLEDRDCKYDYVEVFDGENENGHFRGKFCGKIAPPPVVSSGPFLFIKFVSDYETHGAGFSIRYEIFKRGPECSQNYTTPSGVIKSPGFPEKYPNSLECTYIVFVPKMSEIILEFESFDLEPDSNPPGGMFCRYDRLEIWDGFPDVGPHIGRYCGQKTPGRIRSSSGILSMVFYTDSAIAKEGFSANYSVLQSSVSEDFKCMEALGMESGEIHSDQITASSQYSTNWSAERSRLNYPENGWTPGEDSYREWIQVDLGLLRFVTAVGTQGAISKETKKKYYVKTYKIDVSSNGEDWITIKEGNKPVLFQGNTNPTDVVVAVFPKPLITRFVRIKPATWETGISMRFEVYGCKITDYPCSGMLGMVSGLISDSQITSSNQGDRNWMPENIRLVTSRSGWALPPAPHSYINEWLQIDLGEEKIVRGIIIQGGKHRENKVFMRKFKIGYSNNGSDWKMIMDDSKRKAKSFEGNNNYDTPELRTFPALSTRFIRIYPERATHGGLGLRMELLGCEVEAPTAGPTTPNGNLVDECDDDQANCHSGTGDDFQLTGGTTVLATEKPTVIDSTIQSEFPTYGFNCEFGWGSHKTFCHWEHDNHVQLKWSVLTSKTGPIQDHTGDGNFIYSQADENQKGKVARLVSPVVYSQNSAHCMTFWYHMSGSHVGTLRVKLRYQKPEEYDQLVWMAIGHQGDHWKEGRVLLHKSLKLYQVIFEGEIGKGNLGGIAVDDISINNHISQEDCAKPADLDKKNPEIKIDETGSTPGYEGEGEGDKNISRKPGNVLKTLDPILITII

[2] = target: the molecule itself; experiment: cross-linking; DSS cross-linking of gB-overexpressing cells, western blotting of the natural form of gB^23–431

B1: FLAG-gB^23–431 (EBV glycoprotein B residues 23-431, CendR motif exposed) (domain or fragment)
chain: QTPEQPAPPATTVQPTATRQQTSFPFRVCELSSHGDLFRFSSDIQCPSFGTRENHTEGLLMVFKDNIIPYSFKVRSYTKIVTNILIYNGWYADSVTNRHEEKFSVDSYETDQMDTIYQCYNAVKMTKDGLTRVYVDRDGVNITVNLKPTGGLANGVRRYASQTELYDAPGWLIWTYRTRTTVNCLITDMMAKSNSPFDFFVTTTGQTVEMSPFYDGKNKETFHERADSFHVRTNYKIVDYDNRGTNPQGERRAFLDKGTYTLSWKLENRTAYCPLQHWQTFDSTIATETGKSIHFVTDEGTSSFVTNTTVGIELPDAFKCIEEQVNKTMHEKYEAVQDRYTKGQEAITYFITSGGLLLAWLPLTPRSLATVKNLTELTTPTSSPPSSPSPPAPSAARGSTPAAVLRRRR
notes: Epstein-Barr virus glycoprotein B (gB), residues 23-431, amplified from the gB expression plasmid p2670; ends with the CendR motif 428-431 (furin cleavage site); Secreted into the supernatant; the signal peptide of the vector is not described; also called EBV-gB^23–431; pCEP-his-FLAG-gB^23–431; source: HEK-293FT, transfected, in lysate (co-IP; M2 beads for the pull-down)
[1]
  binding result: binds
[2]
  stoichiometry N: 3
